Changes are numbered by the printed parent chain. Names may count otherwise.

The data set concerns the molecule itself. The data set can be described thus: cryo-EM structure.

B1: K2P13.1EM (human K2P13.1 (THIK-1) residues 1-350, N59Q/N65Q) (domain or fragment, UniProt Q9HB14 1-350, looked up)
chain: MAGRGFSWGPGHLNEDNARFLLLAALIVLYLLGGAAVFSALELAHERQAKQRWEERLAQFSRGHQLSRDELRGFLRHYEEATRAGIRVDNVRPRWDFTGAFYFVGTVVSTIGFGMTTPATVGGKIFLIFYGLVGCSSTILFFNLFLERLITIIAYIMKSCHQRQLRRRGALPQESLKDAGQCEVDSLAGWKPSVYYVMLILCTASILISCCASAMYTPIEGWSYFDSLYFCFVAFSTIGFGDLVSSQNAHYESQGLYRFANFVFILMGVCCIYSLFNVISILIKQSLNWILRKMDSGCCPQCQRGLLRSRRNVVMPGSVRNRCNISIETDGVAESDTDGRRLSGEMISMK
A word on the stoichiometry N: it is a count of units in the complex or per binding partner. In the case of B1, the “stoichiometry N” value was found to be 2.

B2: K2P13.1EM S136P/Y273A (domain or fragment, human, UniProt Q9HB14 1-350, looked up)
chain: B1 chain with S136P, Y273A
For the protein B2, the binding result is “binds”.

The record behind these values is article PMC11230452 (bioRxiv, 2024).
